In publication PMC7395460, “Structural mechanism of helicase loading onto replication origin DNA by ORC-Cdc6” (Proceedings of the National Academy of Sciences of the …, 2020):

Assays:
Settings in all cases: both partners purified
[1] = molecular target: T1, Mcm3 (S. cerevisiae, UniProt P24279 1-971); test: cryo-EM structure; pre-insertion OCCM, 8.1 Å; same loading reaction (purified ORC, Cdc6, Cdt1, mutant Mcm2-7, ARS1 DNA, ATPγS); models docked as rigid bodies
T1 construct: Mcm3 of S. cerevisiae; Stood in the assay as a subunit of the mutant Mcm2-7; in the semi-attached OCCM only its WHD is resolved

[2] = molecular target: T2, Mcm7 (S. cerevisiae, UniProt P38132 1-845); test: as above
T2 construct: Mcm7 of S. cerevisiae; Stood in the assay as a subunit of the mutant Mcm2-7; in the semi-attached OCCM only its WHD is resolved
T2 sequence (looked up): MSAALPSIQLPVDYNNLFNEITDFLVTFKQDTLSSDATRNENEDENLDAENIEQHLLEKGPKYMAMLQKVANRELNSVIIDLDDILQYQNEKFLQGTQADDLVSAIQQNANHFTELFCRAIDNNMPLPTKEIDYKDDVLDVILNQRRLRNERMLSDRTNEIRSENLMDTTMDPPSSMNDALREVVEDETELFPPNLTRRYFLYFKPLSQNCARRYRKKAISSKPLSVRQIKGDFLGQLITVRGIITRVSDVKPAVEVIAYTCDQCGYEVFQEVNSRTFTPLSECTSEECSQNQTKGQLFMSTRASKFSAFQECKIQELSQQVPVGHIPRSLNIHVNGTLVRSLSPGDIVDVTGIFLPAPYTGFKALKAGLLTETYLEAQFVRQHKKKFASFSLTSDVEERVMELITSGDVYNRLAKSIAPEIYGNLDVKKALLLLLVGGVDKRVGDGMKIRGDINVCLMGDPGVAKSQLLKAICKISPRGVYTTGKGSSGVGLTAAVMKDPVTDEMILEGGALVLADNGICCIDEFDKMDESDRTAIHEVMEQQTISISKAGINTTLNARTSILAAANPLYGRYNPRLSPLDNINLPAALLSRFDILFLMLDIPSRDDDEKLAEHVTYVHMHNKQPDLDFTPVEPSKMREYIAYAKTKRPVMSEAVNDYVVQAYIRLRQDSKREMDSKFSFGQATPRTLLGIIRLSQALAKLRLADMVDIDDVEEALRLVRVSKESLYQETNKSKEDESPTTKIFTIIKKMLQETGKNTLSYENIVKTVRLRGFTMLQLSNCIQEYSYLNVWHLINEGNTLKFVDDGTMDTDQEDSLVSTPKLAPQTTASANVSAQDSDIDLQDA

[3] = molecular target: T3, Orc1 (S. cerevisiae, UniProt P54784 1-914); test: cryo-EM structure; semi-attached OCCM, 4.3 Å; assembled from purified ORC, Cdc6, Cdt1 and mutant Mcm2-7 on pUC19-ARS1 DNA beads with 3 mM ATPγS, 15 min at 24 °C, eluted with DNase I
T3 construct: Orc1, subunit of the S. cerevisiae origin recognition complex; Stood in the assay as a subunit of ORC
T3 sequence: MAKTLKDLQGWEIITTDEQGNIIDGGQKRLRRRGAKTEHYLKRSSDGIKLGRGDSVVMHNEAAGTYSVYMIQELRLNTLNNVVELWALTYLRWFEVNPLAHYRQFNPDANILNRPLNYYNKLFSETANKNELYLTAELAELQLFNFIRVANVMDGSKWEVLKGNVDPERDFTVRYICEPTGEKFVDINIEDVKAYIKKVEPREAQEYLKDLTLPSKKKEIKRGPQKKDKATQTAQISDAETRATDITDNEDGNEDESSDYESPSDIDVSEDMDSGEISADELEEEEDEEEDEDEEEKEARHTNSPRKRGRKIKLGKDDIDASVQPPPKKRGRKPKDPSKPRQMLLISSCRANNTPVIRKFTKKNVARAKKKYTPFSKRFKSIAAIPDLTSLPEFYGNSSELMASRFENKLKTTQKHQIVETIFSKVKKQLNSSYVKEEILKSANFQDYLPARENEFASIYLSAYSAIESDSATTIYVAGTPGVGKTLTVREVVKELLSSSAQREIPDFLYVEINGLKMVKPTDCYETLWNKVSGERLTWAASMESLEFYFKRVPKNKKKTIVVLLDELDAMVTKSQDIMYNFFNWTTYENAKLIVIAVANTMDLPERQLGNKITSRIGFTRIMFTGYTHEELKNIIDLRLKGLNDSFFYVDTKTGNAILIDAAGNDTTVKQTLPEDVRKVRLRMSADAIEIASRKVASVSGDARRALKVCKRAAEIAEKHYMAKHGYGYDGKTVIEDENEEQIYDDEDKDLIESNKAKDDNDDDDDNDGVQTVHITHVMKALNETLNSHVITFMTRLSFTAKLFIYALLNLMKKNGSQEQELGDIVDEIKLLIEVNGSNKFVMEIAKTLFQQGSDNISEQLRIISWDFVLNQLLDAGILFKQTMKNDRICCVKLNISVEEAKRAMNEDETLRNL

[4] = molecular target: T4, origin recognition complex (Orc1-6; ORC) (S. cerevisiae, UniProt P54784 1-914; P32833 1-620; P54790 1-616; P54791 1-529; P50874 1-479; P38826 …); test: as above
T4 construct: Orc1, subunit of the S. cerevisiae origin recognition complex; Orc2, subunit of the S. cerevisiae origin recognition complex; Orc3, subunit of the S. cerevisiae origin recognition complex; Orc4, subunit of the S. cerevisiae origin recognition complex; Orc5, subunit of the S. cerevisiae origin recognition complex; Orc6, subunit of the S. cerevisiae origin recognition complex; copies: + + + + +

T1 sequence (P24279 whole entry): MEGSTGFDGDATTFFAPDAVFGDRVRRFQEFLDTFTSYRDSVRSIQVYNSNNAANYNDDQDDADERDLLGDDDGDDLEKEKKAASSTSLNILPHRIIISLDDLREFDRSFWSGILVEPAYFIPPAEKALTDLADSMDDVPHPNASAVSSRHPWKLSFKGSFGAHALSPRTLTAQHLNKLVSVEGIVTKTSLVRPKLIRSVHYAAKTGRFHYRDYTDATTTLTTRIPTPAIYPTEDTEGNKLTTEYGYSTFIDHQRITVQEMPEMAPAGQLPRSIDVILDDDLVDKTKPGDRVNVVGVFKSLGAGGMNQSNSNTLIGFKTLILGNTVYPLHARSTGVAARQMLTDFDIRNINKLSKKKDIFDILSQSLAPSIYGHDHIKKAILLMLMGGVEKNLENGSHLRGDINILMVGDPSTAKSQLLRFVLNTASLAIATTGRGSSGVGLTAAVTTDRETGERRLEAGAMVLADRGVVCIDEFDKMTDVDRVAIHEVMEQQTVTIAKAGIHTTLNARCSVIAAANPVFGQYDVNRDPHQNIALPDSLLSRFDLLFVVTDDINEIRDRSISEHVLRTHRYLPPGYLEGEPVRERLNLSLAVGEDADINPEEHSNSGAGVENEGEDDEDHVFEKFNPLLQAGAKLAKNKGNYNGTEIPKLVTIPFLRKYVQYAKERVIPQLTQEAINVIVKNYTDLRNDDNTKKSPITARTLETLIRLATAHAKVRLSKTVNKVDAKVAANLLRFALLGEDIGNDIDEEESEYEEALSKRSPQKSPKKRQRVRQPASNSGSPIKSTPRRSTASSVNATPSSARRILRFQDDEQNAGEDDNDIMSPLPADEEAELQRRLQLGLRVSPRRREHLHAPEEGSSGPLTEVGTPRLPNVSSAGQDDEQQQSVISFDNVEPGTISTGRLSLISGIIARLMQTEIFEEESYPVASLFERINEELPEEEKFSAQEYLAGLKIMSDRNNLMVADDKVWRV

binding result [1]: binds
binding result [2]: binds
binding result [3]: binds
binding result [4]: binds
B1: Cdc6 (natural protein, S. cerevisiae)
chain: MSAIPITPTKRIRRNLFDDAPATPPRPLKRKKLQFTDVTPESSPEKLQFGSQSIFLRTKALLQKSSELVNLNSSDGALPARTAEYEQVMNFLAKAISEHRSDSLYITGPPGTGKTAQLDMIIRQKFQSLPLSLSTPRSKDVLRHTNPNLQNLSWFELPDGRLESVAVTSINCISLGEPSSIFQKIFDSFQDLNGPTLQIKNMQHLQKFLEPYHKKTTFVVVLDEMDRLLHANTSETQSVRTILELFLLAKLPTVSFVLIGMANSLDMKDRFLSRLNLDRGLLPQTIVFQPYTAEQMYEIVIQKMSSLPTIIFQPMAIKFAAKKCAGNTGDLRKLFDVLRGSIEIYELEKRFLLSPTRGSLNSAQVPLTPTTSPVKKSYPEPQGKIGLNYIAKVFSKFVNNNSTRTRIAKLNIQQKLILCTIIQSLKLNSDATIDESFDHYIKAITKTDTLAPLQRNEFLEICTILETCGLVSIKKTKCKGKTKRFVDKIDVDLDMREFYDEMTKISILKPFLH
notes: Cdc6 of S. cerevisiae
